Test results taken from the DeepSol protein solubility set.

Experiment: soluble on expression in E. coli; label from the status in PepcDB or PDB records

Sequence	soluble on expression in E. coli
MGSDKIHHHHHHAAENLPIQNELFSEYFKKLNPTNYNTKMNRELYIFFKQMFNIDIVKDNIDNANFPTFEEVLGLLDLAEQRKEAFRNFGLENLNNRSDSIRFLRQYLILLMAEAIHNTPRTDNKYHKLLVENLLENDLLLDTTFISANYDIHIDNTVTGLRDKNDLPIMLDYGVEFTNFKEELNWRKPKEPLIKLYKIHGSLNWLYCPICNSVTLTPHEGGVMKLIENSSETKCLECGELTEPIIVPPTYFKNMSNIFLSNVWNETEKTLRDTDLLIFCGYSFPEADMHIKYMLKRVQTNRKKPPLKIMVFNNHSQKQRITLKKEEGRYKRFLGEDVIFTDNSFQDFSVNPLRFIKNI	not soluble
MKVLTVFGTRPEAIKMAPLVHALAKDPFFEAKVCVTAQHREMLDQVLKLFSIVPDYDLNIMQPGQGLTEITCRILEGLKPILAEFKPDVVLVHGDTTTTLATSLAAFYQRIPVGHVEAGLRTGDLYSPWPEEANRTLTGHLAMYHFSPTETSRQNLLRENVADSRIFITGNTVIDALLWVRDQVMSSDKLRSELAANYPFIDPDKKMILVTGHRRESFGRGFEEICHALADIATTHQDIQIVYPVHLNPNVREPVNRILGHVKNVILIDPQEYLPFVWLMNHAWLILTDSGGIQEEAPSLGKPVLVMRDTTERPEAVTAGTVRLVGTDKQRIVEEVTRLLKDENEYQAMSRAHNPYGDGQACSRILEALKNNRISLGSHHHHHH	soluble
MGSDKIHHHHHHMSDDTIDRFFGYLNWLFNPFHGLKTTEVYDLIGTSSLTENALYLNLGYWRKADTIDEASEALALLVAKRGGMGPGDIVLDCGYGFGDQDILWARQLKPEKIIGLNITSSQVERARKRVADAGLEQSIDLREGSATAMPIENESIDLVVSVESAFHYRTREAFFREAFRVLRPGGRLVTADIVPTENSGNPFRRMEQWFSWNLVAGKFNIPQENYYLIPSYQNKLTKAGFVQIDIKSIRDDVYEPLHAYLAKNRTFFAKMHPLARIMAQLTLNRSAESVYAGLDYILSYAEKP	not soluble
MTTELETSFADLGLSAPILSALTDLGYEKPSPIQLECIPHLLNGRDVLGMAQTGSGKTAAFGLPLLHNIKADLKSPQVLVLAPTRELAVQVAEALSSFSKHINGVNVVALYGGQRYDVQLRALRQGPQVVVGTPGRLLDHLKRGTLNLSNLSGLVLDEADEMLRMGFIEDVETIMAQIPAEHQTALFSATMPEAIRRITRRFMKEPQEVRIQSSVTTRPDISQSYWRVGGGYRKNEALVRFLEAEDFDAAIIFVRTKNATLEVAEALERSGYNSAALNGDMNQALREQTLERLKDGRLDILIATDVAARGLDVERISLVVNYDIPMDSESYVHRIGRTGRAGRAGRALLFVENRERRLLQNIERTMKLTIPEVELPNADLLSERRLAKFAAKVSQQLESSDLDMYRALLAKLQPEEEFDIETLAAALLKMAQGERPLILPPEAPRRPQREFNSRDDRGNDRGSRDRGDSRRDNRSDSRSADSRDGGERPARRERRDVGEMELYRIEVGRDDGVEVRHIVGAIANEGDISSRYIGNIKLFASHSTIELPKGMPGEMLSHFTRTRILNKPLNMQLLGDAQPHERRERPAGGNGGERRGGGRPFSGERREGAGAPPRRSFSGDRAPTGGGERRGNRDGQRSAAPRRDDAAAPAAAAAAPARRRFGDA	not soluble
INTVGYLEQKMFAAMVADNQMAMVMLNPKNLKASNGEEELAGQTWYWKVAPVATTQPLLKAFDVSVAAEKQASPIITVRSYVAK	soluble
FFETIHPDDRERIRSEIETAGDSGEPNSVEFRFVEPDGTVVWVVGQAVPVTDDEGNLTERVVGIATDITDLKQR	not soluble
MRLHARSPRVESGRYGWLLDSVVDERRRHRMSFLRLGRNGMSEFERPTDHSLGRCGQVLCVTRGVSSRAPRRSAETGVSVATPATVAAHISVWQYEAMSAYAALAEPHRRQILDLLREGERPAGELVERIALSQPGVSKHLKVLREAGLVVVRADGKQRLYALRPEPLAEVDRWLEPYRAYWSRRLDALERHLEENP	not soluble
MNYHWSDHPDPNKWADCVHCGMCLEACPTYELTGHEQQSPRGRVHLIKSVAEGKLEVNEAFADPVFTCLDCRACETACPADVEVGGLIEEARGQIRQALPLSGWKLEHHHHHH	not soluble
MLTRVPVLILAVIVMLALCQEPEKPEKRPALLSRYGRAVLPRYGKRSGNLMESSQNSLTEESSDVVCQLIDGKYICLPVDAGFLGEVNGSIKQNSKTKCPAFFKNVSFSLFFRAFYLTVPACTSKKNVLLTSTTSTINHQKLEPATTLSPIRQRRRCLFQIDFAYLTVCPSKCQEGTDTGKVADYLLSLGCSDMDVIEREMKRVCCPE	not soluble
GPGSMEVKIGKDVALLTAHKTYRDDGEDMVKAVATYVPFMNYVAACESSGLVPSAFLVRNVRHIARRVVGVIMDVECNTPTGKIVQPVEMSDFSPAILLPVVIVETVRYALLLQRRCVAVGCGLTTEAFCGAKDSGDNITWQNHELLTSAGFDLRDVRKLGFGEYSVGNEGLPPYTLHTIKKGMSSEEFEQLQKISAGTADASLFAVRLEDVMSSVNDAKAGLAASVLLLES	soluble
MKESYYSIGEVSKLANVSIKALRYYDKIDLFKPAYVDPDTSYRYYTDSQLIHLDLIKSLKYIGTPLEEMKKAQDLEMEELFAFYTEQERQIREKLDFLSALEQTISLVKKRMKRQMEYPALGEVFVLDEEEIRIIQTEAEGIGPENVLNASYSKLKKFIESADGFTNNSYGATFSFQPYTSIDEMTYRHIFTPVLTNKQISSITPDMEITTIPKGRYACIAYNFSPEHYFLNLQKLIKYIADRQLTVVSDVYALIIPIHYSPKKQEEYRVEMKIRILDHHHHHH	soluble
MGSDKIHHHHHHMSTRQLLRNHYVQVDRSKKPYCFLLAKEPEYNDILNNYRIPLGEYQFKRTLFAREWLYKDVWHEMVSFAFCREPLSRCISAFFYLWEAEAQRRAWLPSFNGALNAHGYGLDYSFDQFLDAVVACRDSGSNFSPMGLHFSTHTATMWDDVTDSGGSILLSNIFRLEDLIHGINHVFSVCGVPDKAKPLLRDINTNETKRPFTPSRHHIAKVEDLYGKDFELYETYGRLF	not soluble
MSLEQMLWDAACSIRGEKDAAKFKDYLLPLLFLKRLSDVFDDEIERLAEEYGDRATALEIAESDHSLLRFYLPPEARWAVISGRESFDWPLDDRGRPTAPRDIGEHLTKAVRAVVKQNPTLSGVIDVVDFAAERNGERDINPAKLRGVVETFSDPRYRLGLADVQPDFLGRAYEYLLRKFAEGSGQSAGEFFTPTEVGFLMAHILRPKPGETCHDYACGSAGLLIKLQLVARELDPTSRVPLKLSGQELQAESYAVAQMNAIIHDMEVELARGDTMINPKFREASGKIRGHDIVVANPMWNQPFAADLFANDPFDRFRTAGGITSGKGDWAWLQHTLACMNDHGRAAVVLDTGAVTRGSGSKNEDKERTIRKWFVEQDLIDGVILLPENLFYNTTAAGVIVVLSRRKPAARKGKIVLLNASRRFKKGRPKNYLPEEDIRPLAAMYLKGEPVEGELAVITTEQAREADYNLSPSRWVGQNGDAEIGSIPNLLRALEQLNEEDASLTSGLLQLLRPLAKTGDAEGHHHHHH	soluble
MEDDAPMNLCNEQFEEIEDSPIDDNDNESFYNADGDVELEEEEVHETPKNFKNGGRFKTNMTNPKVNDLTTIEEKNEDLRSAASSRSASRPASVMSDKSFSSQFEFQSGGENAIEEYTNQVFADENKADLLFPETSKFMNGASPPKDKHHSWEPSIHHYDKQPPPDIQTNSPVFGNLNHRKNKLIPQARAKPGANDNEIVERDNDENVPTTSDKSAFITSPMNSTNHDEKTSTPKRPTNRKIGQYQGPNFDLSSIYVGSPQHQNTSISTGQQMPTSSYSHAHSETMMTNQTINESMVRRVLNGNNKNQDLFAALEEARKRRAAQPSKPDFRINTTRTRVPIKPTSARHSGNVVSSTSNDNTTAASSKDLTTSRKAMETFRQNASMADATNSNTASMTSILSTISTARTDISRSSRNHGGGFSNTSVSTVIPANNGNVSLSHGRDGRDSVSSVRTMSRASSTSTVYAGSTFSGVSKPLRIHAKRVAFGCVAVGETLRVEVEVENISDRQCLVRASTDSTTPVYQILDNKLTMVDPKKSIKFQVSFSPSSVGRYQVIMSIEVPAQNFIHKIPMWGNGGIAKFVPTSPDLQQTINQSEYAMCTSCAKRISFKISNSAGTRDGFAMIKVFDSAMRQLPDGCVAFFPAPGFIVKKKSDKRVDIRIDSSYIDLHDENNFRTSSSLSTASTTSSFQRRILPGAKFFVHVVWGEETMRTRLRLLEVRTGQHQLIDGHDFTSFQFSDEEVLRAVPVGFPAIKPEDRDLFAASYRSFFINFFTSTTEFRAATSRKKKEICSNDDSTLLETTAFRNQTFVNDVTIVPNTRFSNRK	not soluble
MPTPAYIKIVGQTQGNITAGAFTADSVGNVFQQGHEDQILVQEIKHEVTTPTDPQSGQPSGQRVHKPFIFTSSLNKATPLMYQALATGEMLPTVEVSWYRTSSEGKQEHFFTTTLEDATIVSINTVLPHALDKDNENYTQLVEVSLAYRKITWAHDVANTEGSDDWRAPAA	not soluble
MSLTLSIPPSIQCQTEAACRLITRVTGDTLRAIHLYGSAVAGDLKPNSDIDLLVTICQPLTETQRATLMQELLALSSPPGASAEKRALEVTVVLYSQLVPWCFPPSREMQFGEWLREDIYQGIYEPAQQDWDMVLLITQILETSIPLKGERAERLFTPAPAAQLLKALRYPLDLWQSTADVQGDEYHIVLTLARIWYTLSTGRFTSKDAAADWLLPQLPEEYAATLRAAQREYLGLEQQDWHILLPAVVRFVDFAKAYIPTQFTEGHHHHHH	soluble
MGHHHHHHSHMYFFSKHPEASIQAVFSDAQMHIWALEGLSHLVAASFTEDRFGVVQTTLPAILNTLLTLQEAVDKYFKLPHASSKPPRISGSLVDTSYKTLRFAFRASLKTAIYRITTTFGEHLNAVQASAEHQKRLQQFLEFKE	soluble
MGSDKIHHHHHHMNDALITDALIRGRHAKRGFHRERPVPLETVRDILAVAKYAPSSSNTQPWRCYVVIGDARDRLANAAVEAYRADPENLTPEYPFFPKPLHEPYSARFNTFRGQLGDAQGVPRSDKAGRRRDVERQFRFFDAPIGLIFTMDRRLEWASFLCYGCFLQNIMLAARARGLDTCPQQIWSLQYAVLREQLDIPEGEMVVAGMSLGYADDSLPENNMALRRLELEEFVSVIEG	not soluble
MSEDYADLHDPNAEYTMRELSAETMGADSGRPAPRDLEITDIQTTMVDGNFPWTLVRVYTDAGVVGTGEAYWGAGVPELIERMTPFVVGENPLDIDRLFEHLVQKMSGEGSVEGVTVTAISGIEVALHDLAGKVLGVPAYQLLGGKYRDEVRVYCDCHTAAEADPEACADEAERVVDDLGYDALKFDLDVPSGLEKDRANRHLRPGEIRHKADIVAAVTERVRDRADVAFDCHWTFSGGSAKRLAAELEAYDVWWLEDPVPPENLDVQASVTESTATPIAVGENRYRVTEARRLIENQAVDIVAPDLPKVGGMRETRKIADVANQYYVPVAMHNVASPVATMASAHVGAAIPNALAVEYHSYELGWWSDLVAEDVIEDGSIEVPERPGLGITLDMDAVEEHMVDGETLFDEA	soluble
GMDKLTHYRHTIQEIIKKYYDLSNSQPATATETKISDDLPDTVGDRLIIDEQRDQYLWLCCGWDGKKRVQHIILYLQIQNGKIWIEEDSTNLAIVDEMLVAGIPQTDIILGFHHPSKRGLTEFAIA	soluble
